Data from patent US20110124071A1, “METHODS AND COMPOSITIONS FOR PRODUCING HYDROCARBONS” (priority 2009, published 2011).

T1: Prochlorococcus marinus CCMP1986 PMM0532 (NP-892650; putative decarbonylase)
T1 sequence: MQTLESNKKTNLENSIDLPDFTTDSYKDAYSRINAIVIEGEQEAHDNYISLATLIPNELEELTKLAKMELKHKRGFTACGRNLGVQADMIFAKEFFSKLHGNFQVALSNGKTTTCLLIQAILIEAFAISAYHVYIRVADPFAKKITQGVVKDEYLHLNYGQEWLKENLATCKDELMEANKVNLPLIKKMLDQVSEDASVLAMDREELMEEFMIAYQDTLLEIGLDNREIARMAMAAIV

B1: PCC7942_orf1594 protein (Synechococcus elongatus PCC 7942 = FACHB-805) (protein)
chain: MFGLIGHLTSLEQARDVSRRMGYDEYADQGLEFWSSAPPQIVDEITVTSATGKVIHGRYIESCFLPEMLAARRFKTATRKVLNAMSHAQKHGIDISALGGFTSIIFENFDLASLRQVRDTTLEFERFTTGNTHTAYVICRQVEAAAKTLGIDITQATVAVVGATGDIGSAVCRWLDLKLGVGDLILTARNQERLDNLQAELGRGKILPLEAALPEADFIVWVASMPQGVVIDPATLKQPCVLIDGGYPKNLGSKVQGEGIYVLNGGVVEHCFDIDWQIMSAAEMARPERQMFACFAEAMLLEFEGWHTNFSWGRNQITIEKMEAIGEASVRHGFQPLALAI
notes: His-tag (C); made in house; host or cells: E. coli BL21 (DE3)
B2: PMM0533: Prochlorococcus marinus CCMP1986 putative aldehyde-generating enzyme (SEQ ID NO: 72) (protein, listed as Prochlorococcus marinus)
chain: MFGLIGHSTSFEDAKRKASLLGFDHIADGDLDVWCTAPPQLVENVEVKSAIGISIEGSYIDSCFVPEMLSRFKTARRKVLNAMELAQKKGINITALGGFTSIIFENFNLLQHKQIRNTSLEWERFTTGNTHTAWVICRQLEMNAPKIGIDLKSATVAVVGATGDIGSAVCRWLINKTGIGELLLVARQKEPLDSLQKELDGGTIKNLDEALPEADIVVWVASMPKTMEIDANNLKQPCLMIDGGYPKNLDEKFQGNNIHVVKGGIVRFFNDIGWNMMELAEMQNPQREMFACFAEAMILEFEKCHTNFSWGRNNISLEKMEFIGAASVKHGFSAIGLDKHPKVLAV

Legend:
[1] = system: T1, Prochlorococcus marinus CCMP1986 PMM0532 (NP-892650; putative decarbonylase)
[2] = substrate: CCCCCCCCCCCCCCCCCC(=O)SCCNC(=O)CCNC(=O)[C@H](O)C(C)(C)COP(=O)(O)OP(=O)(O)OC[C@H]1O[C@@H](n2cnc3c(N)ncnc32)[C@H](O)[C@@H]1OP(=O)(O)O; assay: acyl-ACP or acyl-CoA reductase enzyme assay, GC/MS; type: biochemical; settings: other: in the presence of 2 mM NADPH; pH 7.5; 37.0 °C
Protocol: The genomic DNA encoding S. elongatus PCC7492 orf1594 (SEQ ID NO: 66) was cloned into the NcoI and XhoI sites of vector pET-28b under the control of the T7 promoter. The resulting PCC7942_orf1594 protein contained a C-terminal His-tag. An E. coli BL21 strain (DE3) (Invitrogen) was transformed with the plasmid and PCC7942_orf1594 protein was expressed and purified as described in Example 22. The protein solution was stored in the following buffer: 50 mM sodium phosphate, pH 7.5, 100 mM NaCl, 1 mM THP, 10% glycerol. Protein concentration was determined using the Bradford assay (Bio-Rad). 2 mg/ml of PCC7942 orf1594 protein was obtained.
To test PCC7942_orf1594 protein for acyl-ACP or acyl-CoA reductase activity, the following enzyme assays were set-up. 100 μl reactions were set-up in 50 mM Tris-HCl buffer at pH 7.5 with the following components at their respective final concentrations: 10 μM of purified PCC7942_orf1594 protein, 0.01-1 mM acyl-CoA or acyl-ACP, 2 mM MgCl2, 0.2-2 mM NADPH. The reactions were incubated for 1 h at 37° C. and where stopped by adding 100 μl ethyl acetate (containing 5 mg/l 1-octadecene as internal standard). […] 80 μl of the top layer were transferred into GC glass vials and analyzed by GC/MS as described in Example 26. The amount of aldehyde formed was calculated based on the internal standard.

E. coli MG1655 = assay: Heterologous expression of putative aldehyde-generating enzyme alone in E. coli, GC-MS of extracts; type: cell-based; settings: enzyme expressed alone in E. coli MG1655, M9 minimal media, 37° C.
Protocol: The genomic DNA encoding Synechococcus elongatus PCC7942 orf1594 (YP—400611; putative aldehyde-generating enzyme) (SEQ ID NO: 65) was amplified and cloned into the NcoI and EcoRI sites of vector OP-80 (pCL1920 derivative) under the control of the Ptrc promoter. The resulting construct (“OP80-PCC7942—1594”) was transformed into E. coli MG1655 and the cells were grown at 37° C. in M9 minimal media with 1% (w/v) glucose as carbon source and supplemented with 100 μg/ml spectinomycin. When the culture reached OD600 of 0.8-1.0, it was induced with 1 mM IPTG and cells were grown for an additional 18-20 h at 37° C. Cells from 0.5 ml of culture were extracted with 0.5 ml of ethyl acetate. After sonication for 60 min, the sample was centrifuged at 15,000 rpm for 5 min. The solvent layer was analyzed by GC-MS as described in Example 1.
The genomic DNA encoding Cyanothece sp. ATCC51142 cce—1430 (YP—001802846; putative aldehyde-generating enzyme) (SEQ ID NO: 70) was amplified and cloned into the NcoI and EcoRI sites of vector OP-80 (pCL1920 derivative) under the control of the Ptrc promoter. The resulting construct was transformed into E. coli MG1655 and the cells were grown at 37° C. in M9 minimal media with 1% (w/v) glucose as carbon source and supplemented with 100 μg/ml spectinomycin. The cells were cultured and extracted as in Example 3 and analyzed by GC-MS as described in Example 26.
The genomic DNA encoding P. mariunus CCMP1986 PMM0533 (NP_892651; putative aldehyde-generating enzyme) (SEQ ID NO: 72) and Prochlorococcus mariunus CCMP1986 PMM0532 (NP_892650; putative decarbonylase) (SEQ ID NO: 19) were amplified and cloned into the NcoI and EcoRI sites of vector OP-80 and the NdeI and XhoI sites of vector OP-183, respectively. The resulting constructs were separately transformed and cotransformed into E. coli MG1655 and the cells were grown at 37° C. in M9 minimal media supplemented with 100 μg/ml spectinomycin and 100 μg/ml carbenicillin. The cells were cultured and extracted as in Example 3 and analyzed by GC-MS as described in Example 26.

[3] = system: E. coli MG1655 ΔfadE lacZ::Ptrc ′tesA-fadD; assay: Heterologous expression in a fatty acyl-CoA-producing E. coli strain, GC-MS; type: cell-based; settings: reductase coexpressed with a fatty aldehyde decarbonylase
Text: The genomic DNA encoding Acaryochloris marina MBIC11017 AM1—4041 (YP—001518340; putative fatty aldehyde decarbonylase) (SEQ ID NO: 9) was synthesized and cloned into the NdeI and XhoI sites of vector OP-183 (pACYC derivative) under the control of the Ptrc promoter. The resulting construct was cotransformed with OP80-PCC7942—1594 into E. coli MG1655 ΔfadE lacZ::Ptrc ′tesA-fadD. This strain expresses a cytoplasmic version of the E. coli thioesterase, ′TesA, and the E. coli acyl-CoA synthetase, FadD, under the control of the Ptrc promoter, and therefore produces fatty acyl-CoAs. The cells were grown at 37° C. in M9 minimal media supplemented with 100 μg/ml spectinomycin and 100 μg/ml carbenicillin. The cells were cultured and extracted as in Example 3 and analyzed by GC-MS as described in Example 1.
The genomic DNA encoding Synechocystis sp. PCC6803 sll0208 (NP_442147; putative fatty aldehyde decarbonylase) (SEQ ID NO: 3) was synthesized and cloned into the NdeI and XhoI sites of vector OP-183 (pACYC derivative) under the control of the Ptrc promoter. The genomic DNA encoding Synechocystis sp. PCC6803 sll0209 (NP_442146; acyl-ACP reductase) (SEQ ID NO: 68) was synthesized and cloned into the NcoI and EcoRI sites of vector OP-183 (pACYC derivative) under the control of the Ptrc promoter. The resulting constructs were cotransformed with into E. coli MG1655 ΔfadE lacZ::Ptrc ′tesA-fadD. This strain expresses a cytoplasmic version of the E. coli thioesterase, ′TesA, and the E. coli acyl-CoA synthetase, FadD, under the control of the Ptrc promoter, and therefore produces fatty acyl-CoAs. The cells were grown at 37° C. in M9 minimal media supplemented with 100 μg/ml spectinomycin and 100 μg/ml carbenicillin. The cells were cultured and extracted as in Example 3 and analyzed by GC-MS as described in Example 26.

Row | Molecule | fatty alcohol, alkane and alkene production (GC/MS) in E. coli MG1655, PMM0533 alone against PMM0533 coexpressed with PMM0532 [1] | Km [2] | Km for the reduction of octadecenoyl-ACP in the presence of 2 mM NADPH (in vitro reductase assay, GC/MS) (octadecenoyl-ACP) | production of fatty aldehydes and fatty alcohols (E. coli MG1655) | use of acyl-CoA as substrate to produce fatty aldehydes [3]
1 | Prochlorococcus marinus CCMP1986 PMM0533 (NP-892651; putative aldehyde-generating enzyme) | E. coli cells transformed with only the P. mariunus CCMP1986 PMM0533-bearing vector did not produce any fatty aldehydes or fatty alcohols. However, E. coli cells cotransformed with PMM0533 and PMM0532-bearing vectors produced hexadecanol, pentadecane and heptadecene | – | – | – | –
2 | B1 | – | 45 ± 20 µM | 7.8 ± 2 µM | generates aldehydes in vivo | able to use acyl-CoA as a substrate
3 | B2 | – | – | – | did not produce any fatty aldehydes or fatty alcohols | –
